This is an account of results in publication PMC4676722 (PLoS Genetics, 2015).

Where no end group is shown, it is not given here. [ ]: non-standard residue; d: D form. pY = N[C@@H](Cc1ccc(OP(=O)(O)O)cc1)C(=O)O

The target of the experiment is T1, recombinant ovine wild type SOCS2 (Suppressor of Cytokine Signaling 2) (sheep (ovine), UniProt A0ACI6S499 1-198).
T1 construct: also called rOvSOCS2 WT; SOCS2-WT
T1 sequence (looked up): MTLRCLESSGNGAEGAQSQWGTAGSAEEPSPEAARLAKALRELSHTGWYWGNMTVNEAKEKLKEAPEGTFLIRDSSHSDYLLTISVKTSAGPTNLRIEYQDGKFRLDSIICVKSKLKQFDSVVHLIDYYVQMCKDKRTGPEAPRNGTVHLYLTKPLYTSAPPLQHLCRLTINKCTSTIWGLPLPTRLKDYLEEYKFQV
The experiment can be described thus: SPR; BIAcore T200, single-cycle kinetics; biotinylated GHR pY-peptide immobilised on SA chip (75 RU), scramble peptide as reference; five injections of SOCS2 protein 100 nM-8.1 μM, 120 s each; 1:1 Langmuir fit; 25°C, HBS-EP buffer. The note with it: both partners purified.

B1: phosphorylated peptide from the growth hormone receptor (pY595 GHR), biotinylated (peptide)
chain: PVPD[pY]TSIHIV
modifications: also: biotinylated, site not given here
On to B1, for which the koff was 0.0016 s⁻¹ and the kon was determined as 828 M⁻¹ s⁻¹.

Broadly, the koff is a measure of how fast the partners let go of each other. By kon is commonly meant the second-order rate constant of association.
